One assay deals with porcine CD86 (porcine). The assay is described as follows: cell-based or functional assay.
In assay [1] the target is human CTLA4-human CD59 chimeric molecule with a human CD59 leader sequence and an (AS)3 linker (human). Briefly: flow cytometry, PAEC HT 49-hCCm (medium hCTLA4-hCD59); mean ± SE, n=4. A general note: In flow cytometry, cells or beads pass a laser one at a time.
For assay [2] the target is unchanged. The assay is described as follows: flow cytometry, PAEC HT 48-hCCl (low hCTLA4-hCD59); mean ± SE, n=4.
The target is the same in assay [3]. The assay is described as follows: flow cytometry, PAEC Control-hCCm (pig #51, medium hCTLA4-hCD59); mean ± SE, n=4.
Assay [4] shares this target. Briefly: flow cytometry, PAEC Control-hCCh (pig #51, high hCTLA4-hCD59); mean ± SE, n=4.
The target in the next assay is human CD28 (human) (UniProt P10747). Briefly: cell-based or functional assay.
Sequence of UniProt P10747 (P10747 19-220): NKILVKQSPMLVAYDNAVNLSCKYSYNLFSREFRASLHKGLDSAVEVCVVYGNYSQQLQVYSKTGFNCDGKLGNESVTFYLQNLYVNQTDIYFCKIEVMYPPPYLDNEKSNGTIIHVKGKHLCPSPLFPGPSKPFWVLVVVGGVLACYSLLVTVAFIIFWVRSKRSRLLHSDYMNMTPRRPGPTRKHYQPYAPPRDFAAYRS

Sequence of human CTLA4-human CD59 chimeric molecule with a human CD59 leader sequence and an (AS)3 linker (human) (chain, as listed by the source mutant limits assumed): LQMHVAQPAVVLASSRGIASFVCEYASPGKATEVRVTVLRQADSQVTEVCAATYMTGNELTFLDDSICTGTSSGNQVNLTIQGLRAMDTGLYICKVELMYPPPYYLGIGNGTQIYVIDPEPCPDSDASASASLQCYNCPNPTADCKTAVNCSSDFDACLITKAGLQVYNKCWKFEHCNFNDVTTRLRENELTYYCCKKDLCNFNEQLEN

Consider “human CTLA4-human CD59 chimeric molecule with a human CD59 leader sequence and an (AS)3 linker”, for which, in the assay with porcine CD86 (porcine), the IL-2 secreted from Jurkat cells co-cultured with PI-PLC treated hCTLA4-hCD59 PAEC is 570 pg/mL and the IL-2 secreted from Jurkat cells co-cultured with hCTLA4-hCD59 PAEC (fold decrease) came out at 5.
On to “mouse monoclonal antibody BNI3 (Immunotech), specific for hCTLA4”, for which the mean fluorescence intensity in assay [1] is 30.9 MFI; in assay [2], 10.2 MFI; in assay [3], 101 MFI; in assay [4] it was 112 MFI.
As to porcine CD86 (ligand), in the assay with human CD28 (human), the IL-2 secreted from Jurkat cells co-cultured with vector control PAEC and PHA (ELISA) amounted to 400 pg/mL.

For the origin of these results see patent publication US20030086940A1.
